In the DeepSol protein solubility set:

Test: soluble on expression in E. coli; label from the status in PepcDB or PDB records

Sequence	soluble on expression in E. coli
MRTPLSSVSPQLVQRFHELGFTPSSIRNFLGRPGFAAISRGEPASVLYAMRENEDSDFYPLIATFILHRPVAAEALHRVLGGSLTDQLTETGVLEIVDASKAYLTAKIDIRWLELEDDLFWVFSDTDASMIADHVPGKDHVLGVGAASLSLLATTPRSPVNSVLDLGTGSGVQALGQLRHARSVTATDVHPRALDFAEATFAGAHFDVEILDGSWFEPIKNRKFDRIVANPPFVVGPPEIEHVYRDSGLDLDGATETVVRGAVDHLHSNGTAHLLGSWVHKNGESVASRVAEWIPSHGVIAWFLQRDTVDPIQYVNTWLRDESIDPRSEIGFKRTLSWLDHFSRAKVEAVGFGYVAIQRVDDSIPSEVYFEELTHQVDDYLGDEIEEFFVRVDWLREKNRDGIAQSQFYLRPGVAKESVSVTDIDSGMGFTHLKYRITRTEGPRWSHEVDEHIVSVIAGLHPEGLTLEDVATLYAVSNGLDDESFVDAIIDPVVALVRHGILLPAEITKGW	soluble
MGDYDYLIKFLALGDSGVGKTSFLHRYTDNTFTGQFISTVGIDFKEKKVVYKSSRGGFGGRGQRVLLQLWDTAGQERFRSLTTAFFRDAMGFILIFDITNEQSFLNIRDWLSQLKVHAYCEQPDIIICGNKADLENRRQVSTARAKQLADQLGLPYFETSACTSTNVEKSVDCLLDLVMQRIQQSVETSSLPLSECRGVSLDGDPSAASSYCANC	not soluble
MSLARMSRRSRGAAGAQSVVKPETPMAQVLHQFNYCPCQYLEQNWIVPKQPWLLNLDGWRDNPNFNLWCLEEWALAPVPETAFNKPHHSLALLPPDALSTLMLTIGGALHSFAMRQVVLKKPKQCLNNVFGLDIARFLIQQGPMLLSQWPKGWQKALPDVMKEDEVERHMLKQGYAWMKFILASSSHDILLRWQFKLDQSLSQVKENTSWLVEEQRDLAYRLTKKIAKQVIPQWFHLLKEGHHHHHH	not soluble
METLTVHAPSPSTNLPSYGNGAFSLSAPHVPGAGPLLVQVVYSFFQSPNMCLQALTQLEDYIKKHGASNPLTLQIISTNIGYFCNADRNLVLHPGISVYDAYHFAKPAPSQYDYRSMNMKQMSGNVTTPIVALAHYLWGNGAERSVNIANIGLKISPMKINQIKDIIKSGVVGTFPVSTKFTHATGDYNVITGAYLGNITLKTEGTLTISANGSWTYNGVVRSYDDKYDFNASTHRGIIGESLTRLGAMFSGKEYQILLPGEIHIKESGKRAAHHHHHH	soluble
PFEPLITAVIETSLNTLIKDDPALGRRLARLKGQVIQVHLKEIDKTLTFVFSQQIDVLGNYEGQPDCYLSLNLSVLPELRDQANITRLIKQDKLELEGDIQLAQKFSQLMTDCKPDIEEWLSRVTGDVVAHTLVQGTKNVGGFFVSQAEKHQRHLAQVVTEEWKLAPAPLEVAYFCDQVDEVRSQASRVEARLNALLSKVGSDKPA	not soluble
MAHHHHHHMADTHFFAEANVLDDPRETTNAYKEIKYDLLRIERSINTEVRKRIEANKNIQQLIEHTANDMINKVLNKITTKIENISFELDKIIKKCDELEKMVGQIRLTLPTKIQTEMMGLKREVSDFFILLNKYANNRKKRNNVLFSKMENMNAYVSNKIHSEVSFTEDDFLFFRRESAKLLASDSDDEQGFRDAFLQEVEEIRDALALTVKAREQSDDDIIQVGAVRCGGAVQRCDVMRWDETRWAYFR	not soluble
MQGFASQPESSYWYPETLLDWSPETDPDARFNRSSIPLREREVLYTVNDTQQTDAKLVALSALNPNTSGVPSQGGNEFFANTFGFWQYVDLMVYWAGSAGEGIITPPSGDVIDAAHRNGVPILGNVFFPPKVYGGQEEWVDKMLVRGEDGSFPAADKLLEVAEYYGFDGWFINQETEGGTPETAKDMQEFLLYLQENKPEGMHIMWYDSMISNGDIRWQNYLTDENAMFFQAGNRKVADSMFLNFWWWNHSQERSKQKAASLGRSPYDLYAGIDVEANGTNTYVNWQQVFPEGGEPHTSLGIYRPDWAFKSTDTMRDFYDREQLFWVGPSGNPAKVDEHAEWKGMATYFPEKTVINELPFVTHFNTGSGQFFAINGKTKLEHHHHHH	not soluble
MGSDKIHHHHHHMVTRITINRGKRCVDEADRCHNRWHPDIEPAAEVDPGDIVVIETRDALDGQITANPGVDDVASADLNVVHPLTGPVYVRGAKPGDLLVVEVLDIKAEPFGFTVAIPGFGFLRDLFDKPYKIRWRIEGGYAFSEDLPNVRIPGDPFLGVMGVAPSKELLKEIKEREDRLLKRGGFVLPPTPEGAVPPREPVASEGLRTIPPRENGGNLDVRHFSPGSKIYFPVFVEGALFSVGDAHYAQGDGEVCGTAIEMGATATLRFGVISEGAKKYGIRFPIFKPSESSVRRFTHSKHVAVTGVGVIDSLNESENATLSAKHALLNLINLLEKAGYTREQAYLLASVAADLRLSQLVDVPNFTVTAFLPLDIFIEPPEVLKKLAE	not soluble
MGHHHHHHSHMTSELDIFVGNTTLIDEDVYRLWLDGYSVTDAVALRVRSGILEQTGATAAVLQSDTMDHYRTFHMLERLLHAPPKLLHQLIFQIPPSRQALLIERYYAFDEAFVREVLGKKLSKGTKKDLDDISTKTGITLKSCRRQFDNFKRVFKVVEEMRGSLVDNIQQHFLLSDRLARDYAAIVFFANNRFETGKKKLQYLSFGDFAFCAELMIQNWTLGAVGEAPTDP	not soluble
EDGRILKRFCQCEQRSLEQLMKDPLRPFVPAYYGMVLQDGQTFNQMEDLLADFEGPSIMDCKMGSRTYLEEELVKARERPRPRKDMYEKMVAVDPGAPTPEEHAQGAVTKPRYMQWRETMSSTSTLGFRIEGIKKADGTCNTNFKKTQALEQVTKVLEDFVDGDHVILQKYVACLEELREALEISPFFKTHEVVGSSLLFVHDHTGLAKVWMIDFGKTVALPDHQTLSHRLPWAEGNREDGYLWGLDNMICLLQGLAQS	soluble
MNERERVLAIKGGDHQAFIDLYNEYWSQVYDFSRLYIATIADAEEIVQDVFVKLWESRHLLKEDENIKGFLFIVTRNIVFNKNKKRVNENLFKTSVLVAYGNEGYYNSTTVEEDYCASQLKIFIDRLINSLPEQQRKCFLLSREESLSYKEIAERLGISQKTVEIHMGKALKFLKDKVKRGWEILLSLLSF	not soluble
KGHLTRLGLEFFDQPAVPLARAFLGQVLVRRLPNGTELRGRIVETEAYLGPEDEAAHSRGGRQTPRNRGMFMKPGTLYVYIIYGMYFCMNISSQGDGACVLLRALEPLEGLETMRQLRSTLRKGTASRVLKDRELCSGPSKLCQALAINKSFDQRDLAQDEAVWLERGPLEPSEPAVVAAARVGVGHAGEWARKPLRFYVRGSPWVSVVDRVAEQDTQA	soluble
MNTKQSNSHSTPSTFEGAQIRQGKASQCKTLMVQGTTSDAGKTTLVAGLCRVFADLQVKVAPFKPQNMALNSAVTPCGGEIGRAQALQAKAARLALDVDFNPILLKPNSDTGAQVIVHGKALMHRSSSNMEASEYQDYKKVAMQAVLSSHQRLTQQYDLVVVEGAGSPAEINLRKGDIANMGFAEAVDCPVLIIADIDKGGVFAQLVGTLMLLSQSEQDRVVGFVINRFRGDIKLLESGLTWLEERTNKPVLGVLPYLHGLDISSEDALVTQQALV	not soluble
AHHHHHHGSKIPDDVRKDIPLTQEVIYFDNTATSLTPKPVIEAMDEYYLKYRANVHRGVHRLSQMATQKYEESRKVVADFINAKFEEIVFTKNTSESLNLVALGLEHTFKKGDKIVTTPYEHHSNLLPWQRLAKKLGLKLEFIEGDDEGNLDLSDAEKKIKGAKLVAVQHVSNALGVIHEVEELGRMAKEEGAIFVVDAAQSVGHMEVDVKKLNADFLAFSGHKGPMGPTGIGVLFISEEYFDVFDPPLIGGGTIEDVDLCCYKLTEPPERFEAGTPNIGGAIGLAAGIKYIEKIGIEKIEKQERKLVKRTTEGLDELEIPWYGPRNLDKHAGVVSFNVPPLHPHDVAAVLDEHKIMVRSGHHCALPVMKKLGINGTVRASFHVYNSVEEVEIFLGVLEDLVRKIRGAL	soluble
MSSVAVLTQESFAEHRSGLVPQQIKVATLNSEEESDPPTYKDAFPPLPEKAACLESAQEPAGAWGNKIRPIKASVITQVFHVPLEERKYKDMNQFGEGEQAKICLEIMQRTGAHLELSLAKDQGLSIMVSGKLDAVMKARKDIVARLQTQASATVAIPKEHHRFVIGKNGEKLQDLELKTATKIQIPRPDDPSNQIKITGTKEGIEKARHEVLLISAEQDKRAVERLEVEKAFHPFIAGPYNRLVGEIMQETGTRINIPPPSVNRTEIVFTGEKEQLAQAVARIKKIYEEKKKKTTTIAVEVKKSQHKYVIGPKGNSLQEILERTGVSVEIPPSDSISETVILRGEPEKLGQALTEVYAKANSFTVSSVAAPSWLHRFIIGKKGQNLAKITQQMPKVHIEFTEGEDKITLEGPTEDVSVAQEQIEGMVKDLINRMDYVEINIDHKFHRHLIGKSGANINRIKDQYKVSVRIPPDSEKSNLIRIEGDPQGVQQAKRELLELASRMENERTKDLIIEQRFHRTIIGQKGERIREIRDKFPEVIINFPDPAQKSDIVQLRGPKNEVEKCTKYMQKMVADLVENSYSISVPIFKQFHKNIIGKGGANIKKIREESNTKIDLPAENSNSETIIITGKRANCEAARSRILSIQKDLANIAEVEVSIPAKLHNSLIGTKGRLIRSIMEECGGVHIHFPVEGSGSDTVVIRGPSSDVEKAKKQLLHLAEEKQTKSFTVDIRAKPEYHKFLIGKGGGKIRKVRDSTGARVIFPAAEDKDQDLITIIGKEDAVREAQKELEALIQNLDNVVEDSMLVDPKHHRHFVIRRGQVLREIAEEYGGVMVSFPRSGTQSDKVTLKGAKDCVEAAKKRIQEIIEDLEAQVTLECAIPQKFHRSVMGPKGSRIQQITRDFSVQIKFPDREENAVHSTEPVVQENGDEAGEGREAKDCDPGSPRRCDIIIISGRKEKCEAAKEALEALVPVTIEVEVPFDLHRYVIGQKGSGIRKMMDEFEVNIHVPAPELQSDIIAITGLAANLDRAKAGLLERVKELQAEQEDRALRSFKLSVTVDPKYHPKIIGRKGAVITQIRLEHDVNIQFPDKDDGNQPQDQITITGYEKNTEAARDAILRIVGELEQMVSEDVPLDHRVHARIIGARGKAIRKIMDEFKVDIRFPQSGAPDPNCVTVTGLPENVEEAIDHILNLEEEYLADVVDSEALQVYMKPPAHEEAKAPSRGFVVRDAPWTASSSEKAPDMSSSEEFPSFGAQVAPKTLPWGPKR	soluble
MGSDKIHHHHHHMSFKKSELLNVLDMAFKKEFGKGLSLISPQWGLIAMKISSSTKTNTYGWLGFFPKMREWVGERQIKKMQAQAMSIENKTFESTVSISRTDIEDDQAGLFAPVVQQAGQSAAELPDDLVFSLLAKGKSTLCYDGQNFFDTDHPVYENVDGTGSHKEQSNLTTGSASEHPTFYILDDTNAIKPFIWQERSAPEIETKFDPSRSDKVFMEDVYLWGVRARGNAGFGFWQLIHCVEETELTADAVMKVLAQMRMLKGDGGKLLNIRPSTILVPPALEFKARQLFEAEIINGSTNPLKGVLKVAVSAQIATA	not soluble
MIAKEKILKGFETAEARWARFGPYYAMFPLEFAFDVVEKYSKNGDYIIDPFAGRCSSIYAGGVLGRNSLGLEINPVGWLYGTVKLHPAEKEEVIDRLLEIYSKRNYYNRAIQKMPEFYRICYCDEVLKFLLAARTHLDWRNNKVDATLMSILLIYLHAKIGEGLSNQMRMTKSMGMNYSVQWWKKNNMTTPPEINPCDFILKKIEWRYEKGKPKVSESAVVFGDSSNKLISIAERAINNDIKFSLLFTSPPYYSITDYHADQWLRLWLLGGSENPQSLKDKHKGRFVNKQEYYDLLDNVFGLCAKMMKRESTVYVRTDKREFTFNSTLEILKRHFPNHSVKIVEKPLTKDTKTQTKLFGDKTMKPGEVDIIMSRK	not soluble
MGSDKIHHHHHHMNEQWFLLGDIHGSAQPVHYFYQKNKERLSLDSSENFMILLGDVGANFALTGQRDHKFKSELSKLPFTFICLRGNHEARVKTVMDKNPDGWETISKYDGSIFVEKEFPYIEYLADGPAVYNFKSYKTLSLPGAYSVDKYYRQARHLTWYKDEQLNEKEMELGRKLCRNEAPFDLVLSHTCPYLYEPTDLFLAGLDQSTVDSTMERYLGEIEFNLDYKRWAFGHFHADRLYPWADGRQMLMLFNENVVNLDKFMNMTEKQSFKDIIA	not soluble
